Measurements reported in patent US7592168B2, “Cephalosporin C acylase mutant and method for preparing 7-ACA using same” (Sandoz AG, priority 2003, dated 2009).

System: [H][C@]12SCC(COC(C)=O)=C(C(=O)O)N1C(=O)[C@H]2NC(=O)CCC[C@@H](N)C(=O)O
Test: CPC hydrolysis kinetics (Lineweaver-Burk plot), fivefold mutant
Type: biochemical, Pseudomonas sp. SE83
Details: other: substrate CPC, purified enzyme, 0.1 M Tris-HCl pH 8.0, 37° C.
Description: The enzyme activity of CPC acylase mutant to CPC was measured according to the method described by Park et al. with minor modifications as follows (Park, et al., Kor. J. Appl. Microbiol. Biotechnol. 23: 559-564, 1995). A substrate solution was prepared by dissolving CPC (purity 74.2%; CJ Corp., Korea) in 0.1 M Tris-HCl buffer solution (pH 8.0) at a concentration of 20 mg/ml and adjusting pH to 8 with 1 N NaOH. 20 μl of the CPC solution was mixed with 20 μl of the crude enzyme solution prepared above and the reaction mixture was incubated at 37° C. for 5 min. After the reaction, the mixture (200 μl) of 50 mM NaOH and 20% glacial acetic acid (1:2) was added thereto to stop the reaction. 200 μl of the supernatant recovered from the reaction mixture by centrifugation was mixed with 40 μl of 0.5% (w/v) PDAB (p-dimethylaminobenzaldehyde; Sigma, USA) dissolved in a methanol and the reaction mixture was incubated at 37° C. for 10 min. After the reaction, the absorbance of reaction mixture was measured at 415 nm and quantified by comparing with a calibration curve of standard material. […] Meanwhile, the specific activity of CPC acylase mutant for CPC was determined by measuring the amount of protein remaining in the enzyme solution according to the method described by Bradford (Bradford, M., Anal. Biochem. 72: 248-254, 1976) and representing it as an active unit corresponding to 1 mg of protein. […]

## Pseudomonas sp. SE83 CPC acylase AcyII fivefold mutant F169αY/M31βL/F58βM/H70βS/I176βV (mI176) (Pseudomonas sp. SE83; F170Y/F297M/H309S/I415V/M270L)
  Km: 8 mM
